US20100080800A1 (AC IMMUNE S A, published 2010)
One block for each binder: values may come before it.

Key:
[1] = target: T1, soluble polymeric amyloid beta (UniProt P05067 672-713); assay: ELISA on plates coated with the amyloid preparation (55 µg/ml), AP-labelled anti-mouse IgG
T1 construct: also called Oligomer; polymeric soluble amyloid
Protocol: In order to evaluate the specificity of mC2 to different stages of polymerized amyloid protein, monomeric, polymeric soluble and fibrillic amyloid, an ELISA coated with these different stages of polymeric beta-amyloid was performed (FIG. 9). Monomers were prepared according to a modified method published by (Klein, 2002), soluble polymeric amyloid beta according to (Barghorn et al., 2005), whereas fibers were performed by incubation of amyloid (Bachem, Switzerland) with a final concentration of 1 μg/μl in Tris/HCl pH 7.4 at 37° C. for 5 days followed by a centrifugation step (10,000 rpm for 5 minutes). Then amyloid polymers were coated on an ELISA plates with a final concentration of 55 μg/ml and binding affinity ELISA by using an anti-mouse IgG monoclonal antibody (Jackson) labelled with alkaline phosphate was performed.

[2] = target: Amyloid Beta (antigen of the Amyloid Beta ELISA) (UniProt P05067 672-713, limits assumed); assay: Amyloid Beta ELISA, antibody purified from NS0 cells
Chain of Amyloid Beta (antigen of the Amyloid Beta ELISA) (P05067 672-713 limits assumed): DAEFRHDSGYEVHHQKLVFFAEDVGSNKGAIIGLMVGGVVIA

T1 sequence (P05067 672-713): as the sequence (P05067 672-713 limits assumed) above

EC50 (read off the curve) [1]: ~0.4 µg/mL
B1: mouse monoclonal antibody ACI-01-Ab7C2 (antibody, V domains shown)
VH: EVQLVESGGGLVQPGGSLKLSCAASGFTFSSYGMSWVRQTPDKRLELVASINSNGGSTYYPDSVKGRFTISRDNAKNTLYLQMSSLKSEDTAMYYCASGDYWGQGSTLTVSS
VL: DVVMTQTPLSLPVSLGDQASISCRSSQSLVYSNGDTYLHWYLQKPGQSPKLLIYKVSNRFSGVPDRFSGSGSGTDFTLKISRVEAEDLGVYFCSQSTHVPWTFGGGTKLEIK
notes: Mouse IgG2b/kappa from hybridoma FP-12H3-C2 (DSM ACC2750); also called mC2; Mouse ACI-01-Ab-7-C2

EC50 (read off the curve) [2]: ~4 ng/well
B2: C2HuVH4/HuVK2 humanized antibody (antibody, human IgG4 S228P, kappa, V domains shown)
VH: EVQLVESGGGLVQPGGSLRLSCAASGFTFSSYGMSWVRQAPGKGLELVASINSNGGSTYYPDSVKGRFTISRDNAKNSLYLQMNSLRAEDTAVYYCASGDYWGQGTTVTVSS
VL: DIVMTQSPLSLPVTPGEPASISCRSSQSLVYSNGDTYLHWYLQKPGQSPQLLIYKVSNRFSGVPDRFSGSGSGTDFTLKISRVEAEDVGVYFCSQSTHVPWTFGQGTKVEIKR
notes: also called C2HuVHAF4 with C2HuVK2
